Assay results published in publication PMC7954794, “Protein context shapes the specificity of SH3 domain-mediated interactions in vivo” (Nature Communications, 2021).

Tested on: growth of yeast strains under 51 stress conditions
Test: Growth assays in 51 stress conditions (Fig. 1E-F, S2D, S5B)
Assay type: cell-based, Saccharomyces cerevisiae
Set-up: Sla1 strains growth distance: scale not given here
Settings: 51 stress conditions, Fig S5B
Procedure, shortened: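 Colony sizes at 74 h on 51 stress media (37 °C) were log2 transformed, corrected for plate effects, and averaged across two plates as per-plate medians (growth score). Strains arrayed in 12 replicates with WT border, grown first on YPD for two days at 30 °C.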

B1: WT¦WT¦WT (protein, UniProt P32790 1-1244, looked up)
Actin cytoskeleton-regulatory …: MTVFLGIYRAVYAYEPQTPEELAIQEDDLLYLLQKSDIDDWWTVKKRVIGSDSEEPVGLVPSTYIEEAPVLKKVRAIYDYEQVQNADEELTFHENDVFDVFDDKDADWLLVKSTVSNEFGFIPGNYVEPENGSTSKQEQAPAAAEAPAATPAAAPASAAVLPTNFLPPPQHNDRARMMQSKEDQAPDEDEEGPPPAMPARPTATTETTDATAAAVRSRTRLSYSDNDNDDEEDDYYYNSNSNNVGNHEYNTEYHSWNVTEIEGRKKKKAKLSIGNNKINFIPQKGTPHEWSIDKLVSYDNEKKHMFLEFVDPYRSLELHTGNTTTCEEIMNIIGEYKGASRDPGLREVEMASKSKKRGIVQYDFMAESQDELTIKSGDKVYILDDKKSKDWWMCQLVDSGKSGLVPAQFIEPVRDKKHTESTASGIIKSIKKNFTKSPSRSRSRSRSKSNANASWKDDELQNDVVGSAAGKRSRKSSLSSHKKNSSATKDFPNPKKSRLWVDRSGTFKVDAEFIGCAKGKIHLHKANGVKIAVAADKLSNEDLAYVEKITGFSLEKFKANDGSSSRGTDSRDSERERRRRLKEQEEKERDRRLKERELYELKKARELLDEERSRLQEKELPPIKPPRPTSTTSVPNTTSVPPAESSNNNNSSNKYDWFEFFLNCGVDVSNCQRYTINFDREQLTEDMMPDINNSMLRTLGLREGDIVRVMKHLDKKFGRENIASIPTNATGNMFSQPDGSLNVATSPETSLPQQLLPQTTSPAQTAPSTSAETDDAWTVKPASKSESNLLSKKSEFTGSMQDLLDLQPLEPKKAAASTPEPNLKDLEPVKTGGTTVPAAPVSSAPVSSAPAPLDPFKTGGNNILPLSTGFVMMPMITGGDMLPMQRTGGFVVPQTTFGMQSQVTGGILPVQKTGNGLIPISNTGGAMMPQTTFGAAATVLPLQKTGGGLIPIATTGGAQFPQTSFNVQGQQQLPTGSILPVQKTANGLISANTGVSMPTVQRTGGTMIPQTSFGVSQQLTGGAMMTQPQNTGSAMMPQTSFNAVPQITGGAMMPQTSFNALPQVTGGAMMPLQRTGGALNTFNTGGAMIPQTSFSSQAQNTGGFRPQSQFGLTLQKTGGIAPLNQNQFTGGAMNTLSTGGVLQQQQPQTMNTFNTGGVMQELQMMTTFNTGGAMQQPQMMNTFNTDGIMQQPQMMNTFNTGGAMQQPQQQALQNQPTGFGFGNGPQQSRQANIFNATASNPFGF
Sla1 strains growth distance (distance to ABP1¦WT¦WT): 32.7633 | Sla1 strains growth distance (distance to ABP1¦WT¦WT, listed as WT¦WT¦WT*): 32.7344 | Sla1 strains growth distance (distance to D¦D¦D): 13.1994 | Sla1 strains growth distance (distance to D¦D¦D, listed as WT¦WT¦WT*): 13.2336 | Sla1 strains growth distance (distance to D¦WT¦D): 4.481 | Sla1 strains growth distance (distance to D¦WT¦D, listed as WT¦WT¦WT*): 4.3276 | Sla1 strains growth distance (distance to D¦WT¦SH3-1): 9.537 | Sla1 strains growth distance (distance to D¦WT¦SH3-1, listed as WT¦WT¦WT*): 9.613 | Sla1 strains growth distance (distance to D¦WT¦SH3-2): 5.1186 | Sla1 strains growth distance (distance to D¦WT¦SH3-2, listed as WT¦WT¦WT*): 4.955 | Sla1 strains growth distance (distance to D¦WT¦WT): 4.59 | Sla1 strains growth distance (distance to D¦WT¦WT, listed as WT¦WT¦WT*): 4.434 | Sla1 strains growth distance (distance to SH3-2¦SH3-1¦WT): 7.002 | Sla1 strains growth distance (distance to SH3-2¦SH3-1¦WT, listed as WT¦WT¦WT*): 6.862 | Sla1 strains growth distance (distance to SH3-2¦WT¦D): 9.252 | Sla1 strains growth distance (distance to SH3-2¦WT¦D, listed as WT¦WT¦WT*): 9.12 | Sla1 strains growth distance (distance to SH3-2¦WT¦WT): 2.328 | Sla1 strains growth distance (distance to SH3-2¦WT¦WT, listed as WT¦WT¦WT*): 2.435 | Sla1 strains growth distance (distance to SH3-3¦SH3-1¦D): 3.781 | Sla1 strains growth distance (distance to SH3-3¦SH3-1¦D, listed as WT¦WT¦WT*): 3.648 | Sla1 strains growth distance (distance to SH3-3¦SH3-1¦SH3-2): 4.4511 | Sla1 strains growth distance (distance to SH3-3¦SH3-1¦SH3-2, listed as WT¦WT¦WT*): 4.2977 | Sla1 strains growth distance (distance to SH3-3¦WT¦D): 11.8089 | Sla1 strains growth distance (distance to SH3-3¦WT¦D, listed as WT¦WT¦WT*): 11.8591 | Sla1 strains growth distance (distance to SH3-3¦WT¦SH3-1): 11.5081 | Sla1 strains growth distance (distance to SH3-3¦WT¦SH3-1, listed as WT¦WT¦WT*): 11.5693 | Sla1 strains growth distance (distance to SH3-3¦WT¦WT): 11.7278 | Sla1 strains growth distance (distance to SH3-3¦WT¦WT, listed as WT¦WT¦WT*): 11.7806 | Sla1 strains growth distance (distance to WT*¦WT¦WT): 0.6236 | Sla1 strains growth distance (distance to WT*¦WT¦WT, listed as WT¦WT¦WT*): 0.5854 | Sla1 strains growth distance (distance to WT¦ABP1¦WT): 11.3779 | Sla1 strains growth distance (distance to WT¦ABP1¦WT, listed as WT¦WT¦WT*): 11.4192 | Sla1 strains growth distance (distance to WT¦D¦D): 4.458 | Sla1 strains growth distance (distance to WT¦D¦D, listed as WT¦WT¦WT*): 4.315 | Sla1 strains growth distance (distance to WT¦D¦SH3-2): 5.097 | Sla1 strains growth distance (distance to WT¦D¦SH3-2, listed as WT¦WT¦WT*): 4.943 | Sla1 strains growth distance (distance to WT¦D¦WT): 5.311 | Sla1 strains growth distance (distance to WT¦D¦WT, listed as WT¦WT¦WT*): 5.149 | Sla1 strains growth distance (distance to WT¦SH3-1¦D): 0.4704 | Sla1 strains growth distance (distance to WT¦SH3-1¦D, listed as WT¦WT¦WT*): 0.4379 | Sla1 strains growth distance (distance to WT¦SH3-1¦WT): 0.4878 | Sla1 strains growth distance (distance to WT¦SH3-1¦WT, listed as WT¦WT¦WT*): 0.5418 | Sla1 strains growth distance (distance to WT¦SH3-3¦D): 5.1001 | Sla1 strains growth distance (distance to WT¦SH3-3¦D, listed as WT¦WT¦WT*): 4.947 | Sla1 strains growth distance (distance to WT¦SH3-3¦SH3-2): 5.331 | Sla1 strains growth distance (distance to WT¦SH3-3¦SH3-2, listed as WT¦WT¦WT*): 5.179 | Sla1 strains growth distance (distance to WT¦SH3-3¦WT): 4.703 | Sla1 strains growth distance (distance to WT¦SH3-3¦WT, listed as WT¦WT¦WT*): 4.556 | Sla1 strains growth distance (distance to WT¦WT*¦WT): 0.917 | Sla1 strains growth distance (distance to WT¦WT*¦WT, listed as WT¦WT¦WT*): 0.7508 | Sla1 strains growth distance (distance to WT¦WT¦ABP1): 1.932 | Sla1 strains growth distance (distance to WT¦WT¦ABP1, listed as WT¦WT¦WT*): 1.926 | Sla1 strains growth distance (distance to WT¦WT¦D): 0.5681 | Sla1 strains growth distance (distance to WT¦WT¦D, listed as WT¦WT¦WT*): 0.4359 | Sla1 strains growth distance (distance to WT¦WT¦SH3-1): 0.5772 | Sla1 strains growth distance (distance to WT¦WT¦SH3-1, listed as WT¦WT¦WT*): 0.4107 | Sla1 strains growth distance (distance to WT¦WT¦SH3-2): 0.55 | Sla1 strains growth distance (distance to WT¦WT¦SH3-2, listed as WT¦WT¦WT*): 0.3776 | Sla1 strains growth distance (distance to WT¦WT¦WT*): 0.496 | Sla1 strains growth distance (distance to WT¦WT¦WT*, listed as WT¦WT¦WT*): 0 | Sla1 strains growth distance (distance to WT¦WT¦WT): 0 | Sla1 strains growth distance (distance to WT¦WT¦WT, listed as WT¦WT¦WT*): 0.496
